Reference: article PMC9996972

Target: αVβ3 integrin (rat (endogenous in primary astrocytes)) (UniProt Q8R2H2)
UniProt Q8R2H2, sequence (Q8R2H2 whole entry, looked up): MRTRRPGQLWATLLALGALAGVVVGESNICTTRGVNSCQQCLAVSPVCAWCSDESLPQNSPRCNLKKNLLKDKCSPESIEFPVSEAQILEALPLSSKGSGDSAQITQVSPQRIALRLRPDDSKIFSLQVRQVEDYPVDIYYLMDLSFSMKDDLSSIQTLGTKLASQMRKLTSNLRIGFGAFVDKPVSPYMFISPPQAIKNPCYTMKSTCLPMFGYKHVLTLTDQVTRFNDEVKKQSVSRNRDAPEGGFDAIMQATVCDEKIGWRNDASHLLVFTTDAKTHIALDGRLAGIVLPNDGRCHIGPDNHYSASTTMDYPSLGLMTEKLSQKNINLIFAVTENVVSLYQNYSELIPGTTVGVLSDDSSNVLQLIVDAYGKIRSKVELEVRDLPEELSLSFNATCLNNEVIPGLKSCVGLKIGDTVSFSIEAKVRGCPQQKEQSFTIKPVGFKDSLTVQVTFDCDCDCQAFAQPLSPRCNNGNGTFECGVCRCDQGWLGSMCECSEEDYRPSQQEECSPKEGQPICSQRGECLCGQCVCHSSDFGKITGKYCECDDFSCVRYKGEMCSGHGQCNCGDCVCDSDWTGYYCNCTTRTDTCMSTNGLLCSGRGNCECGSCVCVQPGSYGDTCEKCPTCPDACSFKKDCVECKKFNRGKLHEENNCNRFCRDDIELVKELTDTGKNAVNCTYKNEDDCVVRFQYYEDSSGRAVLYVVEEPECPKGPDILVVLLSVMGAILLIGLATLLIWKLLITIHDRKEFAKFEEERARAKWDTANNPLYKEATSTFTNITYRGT

wound closure (migration) of primary astrocytes pretreated with Hp OMVs (2.5 µg/ml, 12 h), then stimulated with Thy-1-Fc/Protein-A for 24 h: 25%
wound closure (migration) of primary astrocytes pretreated with TNF (10 ng/ml, 48 h), then stimulated with Thy-1-Fc/Protein-A for 24 h: 10%
B1: Thy-1-Fc fusion protein (Fc fusion)
chain: QKVTSLTACLVNQNLRLDCRHENNTKDNSIQHEFSLTREKRKHVLSGTLGIPEHTYRSRVTLSNQPYIKVLTLANFTTKDEGDYFCELQVSGANPMSSNKSISVYRDKLVKC
